Test results taken from paper PMC7509637 (Advanced Science, 2020).
Entries after “also recorded” stand apart in the source; their conditions may differ.

Assays:
zebrafish larvae [1] = assay: Congo red imaging of Aβ fibrillization in zebrafish larval brain; format: in vivo, zebrafish (AB, Danio rerio); conditions: for Congo red fluorescence / Aβ fibrillization in larval brain (in words): 2 d postinjection
Procedure: (§1) Aβ (HFIP‐treated) was dissolved in PBS (pH 7.4) to make a stock solution. Aβ (100 × 10^−15 M) was injected into the cerebroventricular space of one week old zebrafish larvae. Aβ with FapCS was injected at a 10:1 molar ratio (Aβ:FapCS, 100 × 10^−15:10 × 10^−15 M). PBS alone and untreated larvae were used as negative controls. Zebrafish larvae were anesthetized by adding a few drops of tricaine (0.4%) in the petri dish. When larvae stopped to move in response to the tapping stimuli, the larvae were transferred to an injection template made from 1% agarose gel. Microinjection of Aβ was performed with a calibrated microneedle and pneumatic microinjection system (PV830 WPI), under a stereomicroscope. The injection pressure was set to 20 psi, the injection volume was 10 nL, and the injections were made with a micromanipulator. The tip of the needle was inserted into the ventricular space of larvae and penetration across the soft skin of dorsal tissue (central meeting point of both telencephalons) was not more than 0.3 mm. After microinjection, the larvae were transferred to the fresh Holtfreter's buffer in petri dish and incubated at 28 ± 0.5 °C for further observation.
To monitor Aβ fibrillization in the brain of zebrafish larvae, the Aβ or Aβ + FapCS injected larvae were further injected with Congo red 2 days or one week posttreatment. Congo red (100 × 10^−15 M) was injected to the cerebroventricular space of the zebrafish larvae and placed back in Holtfreter's buffer (1 h) to allow staining of Aβ plaques in the brain tissues of larvae and elimination of excess dye. Whole mount imaging of zebrafish larvae was performed via the brightfield and red fluorescence channels of a fluorescence microscope. All images were captured under the same exposure and intensity settings of the microscope. Relative red fluorescence intensities were measured from the images by using Fiji ImageJ and represented as fraction of 1. Aβ at one week was considered as a positive control (100% or fraction 1) while buffer only was considered as a negative control (0% or fraction 0).

adult zebrafish brain [2] = assay: Synaptophysin IHC in brain of adult zebrafish; format: in vivo, zebrafish (AB, Danio rerio); conditions: for synaptophysin-positive synapses/cells (in words): n = 3
Procedure: (§2) Adult zebrafish (10 months) were employed for the study. Prior to microinjection, adult zebrafish were anesthetized by placing them in a beaker filled with ice‐chilled tricaine (0.01% in Holtfreter's buffer) for 20 s. The samples of Aβ alone and Aβ with FapCS or bacterial biofilm fragments were injected to the cerebroventricular space of adult fish with a 1 µL Hamilton glass syringe. The concentration of the Aβ peptide was 40 × 10^−6 M (in PBS, pH 7.4) while FapCS or biofilm fragments were included at a 10:1 ratio (Aβ:FapCS or biofilm fragments). The needle penetrated between left and right telencephalon for not more than 1 mm and injection volume was 1 µL. The syringe was washed with ethanol and PBS in between the injections. The injections were made under a stereomicroscope and fish were held in place with forceps. After microinjection, the fish was placed back in the water tank for recovery.
(§3) The deposition of Aβ, depletion of synaptophysin positive cells and TUNEL assay were measured by IHC. The adult fish, at 4 d or 2 weeks postinjection with Aβ and Aβ with FapCS or biofilm fragments, were euthanized by placing in ice‐chilled tricaine (0.4% in Holtfreter's buffer) for 1 min. The head of the fish was separated at pectoral fin point with a sharp blade and fixed in paraformaldehyde as described in the “Animal husbandry and ethics statement” section. The fixed heads were dehydrated by dipping in gradual concentration of ethanol, i.e., 20%, 40%, 60%, 80%, and 100% with 10 min at each step. The heads were treated with 20% sucrose overnight, mounted with Tissue Trek OCT mounting medium at −20 °C. The heads were then sectioned into […] section with a cryostat. The sections were mounted on a gelatinized glass slide and immunostained with antibodies. The sections were dried, washed thrice in PBS (pH 7.4), and TritonX‐100 (0.05% in PBS) for 5 min each. […] The sections were imaged by a fluorescence microscope and fluorescence intensities were measured from the images with Fiji ImageJ analysis.

adult zebrafish brain [3] = assay: TUNEL assay in brain of adult zebrafish; format: in vivo, zebrafish (AB, Danio rerio); conditions: for TUNEL assay, DNA damage / cell death (in words): n = 3
Procedure: as §2, §3

zebrafish larvae [4] = assay: Behavioral pathology of zebrafish larvae (Zebrabox); format: in vivo, zebrafish (AB, Danio rerio); conditions: 2 d postinjection, 1 h observation
Procedure: as §1, with “After microinjection, the larvae were transferred to the fresh Holtfreter's buffer in petri dish and incubated at 28 ± 0.5 °C for further observation.” left out
Behavior of zebrafish larvae was observed by an automated zebrafish behavior recording system Zebrabox (Viewpoint). […] The trajectories of the zebrafish movements were also recorded by the instrument and all behavior measurements were done in a 96‐well plate with one larva per well. […]

Aβ = biological target: T1, Aβ (Homo sapiens, UniProt P05067); assay: TEM imaging of Aβ with FapC species or bLgS; conditions: 12 h incubation, uranyl acetate negative stain
T1 construct: purchased Anaspec Inc
Procedure: Aβ incubated in the presence or absence of FapCS, FapC monomers, FapC fibrils or bLgS were subjected to TEM imaging. After incubation for 12 h, a drop of sample was applied on a glow‐discharged carbon‐coated copper grid. After 1 min, the sample was blotted and then negatively stained with uranyl acetate (1%) for 30 s. The dried grid was then imaged with a Technei F20 TEM at 200 kV. For AFM, a drop of sample was placed on freshly cleaved mica surface and rinsed with water after 2 min and dried with pressurized air. The sample was scanned with an AFM (Nanoscope VIII Multimode Scanning Force Microscopes, Bruker), covered with an acoustic hood to minimize the vibrational noise. Images were acquired under the tapping mode with a silicon nitride cantilever (Bruker). AFM images were processed with Nanoscope Analysis 1.5 software to flatten the background and to calculate the statistical parameters.

[5] = FapCS alone, 4 × 10^−6 M, Figure S13

Molecule | Congo red fluorescence / Aβ fibrillization in larval brain (in words) (zebrafish larvae [1]) | synaptophysin-positive synapses/cells (in words) (adult zebrafish brain [2]; 2 weeks postinjection) | synaptophysin-positive synapses/cells (in words) (adult zebrafish brain [2]; 4 d postinjection) | TUNEL assay, DNA damage / cell death (in words) (adult zebrafish brain [3]; 2 weeks postinjection) | TUNEL assay, DNA damage / cell death (in words) (adult zebrafish brain [3]; 4 d postinjection) | larval swimming behavior (in words) (zebrafish larvae [4]) | TEM observation (Aβ) | Congo red fluorescence in larval brain (in words) (zebrafish larvae [1]; one week postinjection, Figure S12A) | synapse health (in words) (adult zebrafish brain [2]; [5]) | DNA damage / toxicity (in words) (adult zebrafish brain [3]; [5])
amyloid beta [Aβ] | no fibrillization was observed | neurodegeneration of synaptophysin positive cells; also recorded: degenerate synaptophysin‐positive synapses | synaptophysin positive neuronal cells | neuronal cell death; also recorded: DNA damage per the TUNEL assay | negative TUNEL assay | slightly lower movement frequency | prefibrillary oligomers |  |  | 
FapCS: FapC seeds obtained by sonication of mature FapC fibrils (P. aeruginosa) (protein) GNEGGWHPPKPNPQSNNKGGATALVVDTQQNYNNKVSNFGTLNNASVSGSIKDASGNVGVNVAAGDNNQQANAAALASADASFVFGTATASTSVLQSGYGNTLNNYSNPNTASLSNSANNVSGNLGVNVAAGNFNQQKNDLAAAVSNGQYSTAGSAASQTSTGNTTVNSANYAYGGTYVSLKLNADGSYKGTSDQIGDVYLDTWEGQTHPGGSNTGHIDVDSQAQGAKDLNHDGGAFAFKEKGDVDLKGTVSGFIPAIVGFKTPVTNNASLSNSLQNVSGNVGVNIAAGGGNQQSNSLSIAAGCSSCPAGGESLGF | insignificant fluorescence was observed; also recorded: did not show any retention of Congo red fluorescence in the brain |  |  |  |  | significantly aggravated (**, P < 0.005) Aβ toxicity and reduced the movement frequency and total travel distance | appeared to adsorb onto the growing Aβ fibers | insignificant fluorescence was observed | Healthy synapses | no DNA damage; also recorded: non‐toxic nature
